Assay results published in the RNAGym collection of RNA variant scans (doi:10.1093/nar/gkz1192).

B1: CPEB3 Ribozyme (parent)
chain: UAACAGGGGGCCACAGCAGAAGCGUUCACGUCGCAGCCCCUGUCAGAUUCUGGUGAAUCUGCGAAUUCUGCUGUAUAUCUC

Variants of: B1
Experiment: self-cleavage, relative activity (ratio to wild type); higher = more cleavage; in vitro, sequencing
In short: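 CPEB3 self-cleaving ribozyme mutant libraries were made by rounds of error-prone PCR, barcoded, and transcribed in vitro with T7 RNA polymerase for 5 hours at 37°C. Cleavage occurred during transcription and a 15 min DNase I step before EDTA stop. RNAs were reverse transcribed with template switching and Illumina-sequenced, with DNA sequencing mapping barcodes to variants. Relative activity is the variant's cleaved/total read fraction divided by wild type's (minimum 5 reads), averaged across three batches.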

Question: Which self-cleavage does the source give for AAACAGGGGGCCACAGCAGAAGCGUUCACGUCGCAGCCCCUGUCAGUUUCUGGUGAAUCUGCGAAUUCUGCUGUAUAUCUC [U1A A47U] here?
Answer: 0.78

Question: Which self-cleavage does the source give for AAACAGGGGGCCACAGCAGAAGCGUUCACGUCGCAGCCCCUGUCAGGUUCUGGUGAAUCUGCGAAUUCUGCUGUAUAUCUC [U1A A47G] here?
Answer: 1.01

Question: Which self-cleavage does the source give for AAGCAGGGGGCCACAGCAGAAGCGUUCACGUCGCAGCCCCUGUCAGAUUCUGGUGAAUCUGCGAAUUCUGCUGUAUAUCUC [U1A A3G] here?
Answer: 1.1

Question: With AACCAGGGGGCCACAGCAGAAGCGUUCACGUCGCAGCCCCUGUCAGAUUCUGGUGAAUCUGCGAAUUCUGCUGUAUAUCUC [U1A A3C] as the variant, how does the self-cleavage read?
Answer: 1.09

Question: With AAUCAGGGGGCCACAGCAGAAGCGUUCACGUCGCAGCCCCUGUCAGAUUCUGGUGAAUCUGCGAAUUCUGCUGUAUAUCUC [U1A A3U] as the variant, how does the self-cleavage read?
Answer: 1.2

Question: For AAACAGGGGGCCACAGCCGAAGCGUUCACGUCGCAGCCCCUGUCAGAUUCUGGUGAAUCUGCGAAUUCUGCUGUAUAUCUC [U1A A18C], which self-cleavage is on record?
Answer: 0.53

Question: For AAACAGGGGGCCACAGCUGAAGCGUUCACGUCGCAGCCCCUGUCAGAUUCUGGUGAAUCUGCGAAUUCUGCUGUAUAUCUC [U1A A18U], which self-cleavage is on record?
Answer: 0.41

Question: With AAACAGGGGGCCACAGCGGAAGCGUUCACGUCGCAGCCCCUGUCAGAUUCUGGUGAAUCUGCGAAUUCUGCUGUAUAUCUC [U1A A18G] as the variant, how does the self-cleavage read?
Answer: 0.57

Question: Which self-cleavage does the source give for AAACAGGGGGCCACAGCAGAAGCGUUCACGUCGCAGCCCCUGUCAGAUUCUGGUGAAUCUGCGAAUUCUGCUGUAUAUCUC [U1A] here?
Answer: 0.98

Question: For AAACAGGGGGCCACAGCAGAAGCGUUCACGUCGCAGCCCCUGUCAGAUUCUGGUGGAUCUGCGAAUUCUGCUGUAUAUCUC [U1A A56G], which self-cleavage is on record?
Answer: 0.71

Question: With AAACAGGGGGCCACAGCAGAAGCGUUCACGUCGCAGCCCCUGUCAGAUUCUGGUGUAUCUGCGAAUUCUGCUGUAUAUCUC [U1A A56U] as the variant, how does the self-cleavage read?
Answer: 0.61

Question: Which self-cleavage does the source give for AAACAGGGGGCCACAGCAGAAGCGUUCACGUCGCGGCCCCUGUCAGAUUCUGGUGAAUCUGCGAAUUCUGCUGUAUAUCUC [U1A A35G] here?
Answer: 1.25

Question: For AAACAGGGGGCCACAGCAGAAGCGUUCACGUCGCUGCCCCUGUCAGAUUCUGGUGAAUCUGCGAAUUCUGCUGUAUAUCUC [U1A A35U], which self-cleavage is on record?
Answer: 0.49

Question: With AAACAGGGGGCCACAGCAGACGCGUUCACGUCGCAGCCCCUGUCAGAUUCUGGUGAAUCUGCGAAUUCUGCUGUAUAUCUC [U1A A21C] as the variant, how does the self-cleavage read?
Answer: 0.28

Question: Which self-cleavage does the source give for AAACAGGGGGCCACAGCAGAUGCGUUCACGUCGCAGCCCCUGUCAGAUUCUGGUGAAUCUGCGAAUUCUGCUGUAUAUCUC [U1A A21U] here?
Answer: 0.27

Question: For AAACAGGGGGCCACAGCAGAGGCGUUCACGUCGCAGCCCCUGUCAGAUUCUGGUGAAUCUGCGAAUUCUGCUGUAUAUCUC [U1A A21G], which self-cleavage is on record?
Answer: 0.55

Question: For AAACAGGGGGCCACAGCAGAAGCGUUCACGUCGCAGCCCCUGUCGGAUUCUGGUGAAUCUGCGAAUUCUGCUGUAUAUCUC [U1A A45G], which self-cleavage is on record?
Answer: 0.75

Question: With AAACAGGGGGCCACAGCAGAAGCGUUCACGUCGCAGCCCCUGUCUGAUUCUGGUGAAUCUGCGAAUUCUGCUGUAUAUCUC [U1A A45U] as the variant, how does the self-cleavage read?
Answer: 0.41

Question: For AAACAGGGGGCCACAGCAGUAGCGUUCACGUCGCAGCCCCUGUCAGAUUCUGGUGAAUCUGCGAAUUCUGCUGUAUAUCUC [U1A A20U], which self-cleavage is on record?
Answer: 0.32

Question: For AAACAGGGGGCCACAGCAGGAGCGUUCACGUCGCAGCCCCUGUCAGAUUCUGGUGAAUCUGCGAAUUCUGCUGUAUAUCUC [U1A A20G], which self-cleavage is on record?
Answer: 0.72

Question: Which self-cleavage does the source give for AAACGGGGGGCCACAGCAGAAGCGUUCACGUCGCAGCCCCUGUCAGAUUCUGGUGAAUCUGCGAAUUCUGCUGUAUAUCUC [U1A A5G] here?
Answer: 0.68

Question: Which self-cleavage does the source give for AAACUGGGGGCCACAGCAGAAGCGUUCACGUCGCAGCCCCUGUCAGAUUCUGGUGAAUCUGCGAAUUCUGCUGUAUAUCUC [U1A A5U] here?
Answer: 0.97

Question: For AAACAGGGGGCCACAGCAGAAGCGUUCACGUCGCAGCCCCUGUCAGAUUCUGGUGAAUCUGCGAGUUCUGCUGUAUAUCUC [U1A A65G], which self-cleavage is on record?
Answer: 0.48

Question: Which self-cleavage does the source give for AAACAGGGGGCCACAGCAGAAGCGUUCACGUCGCAGCCCCUGUCAGAUUCUGGUGAAUCUGCGACUUCUGCUGUAUAUCUC [U1A A65C] here?
Answer: 0.12

Question: Which self-cleavage does the source give for AGACAGGGGGCCACAGCAGAAGCGUUCACGUCGCAGCCCCUGUCAGAUUCUGGUGAAUCUGCGAAUUCUGCUGUAUAUCUC [U1A A2G] here?
Answer: 0.87

Question: With AUACAGGGGGCCACAGCAGAAGCGUUCACGUCGCAGCCCCUGUCAGAUUCUGGUGAAUCUGCGAAUUCUGCUGUAUAUCUC [U1A A2U] as the variant, how does the self-cleavage read?
Answer: 1.09

Question: Which self-cleavage does the source give for AAACAGGGGGCCACAGCAGAAGCGUUCACGUCGCAGCCCCUGUCAGAUUCUGGUGAGUCUGCGAAUUCUGCUGUAUAUCUC [U1A A57G] here?
Answer: 0.77

Question: For AAACAGGGGGCCACAGCAGAAGCGUUCACGUCGCAGCCCCUGUCAGAUUCUGGUGAAUCUGCGUAUUCUGCUGUAUAUCUC [U1A A64U], which self-cleavage is on record?
Answer: 0.28

Question: With AAACAGGGGGCCACAGCAGAAGCGUUCACGUCGCAGCCCCUGUCAGAUUCUGGUGAAUCUGCGGAUUCUGCUGUAUAUCUC [U1A A64G] as the variant, how does the self-cleavage read?
Answer: 0.84

Question: For AAACAGGGGGCCACUGCAGAAGCGUUCACGUCGCAGCCCCUGUCAGAUUCUGGUGAAUCUGCGAAUUCUGCUGUAUAUCUC [U1A A15U], which self-cleavage is on record?
Answer: 0.69

Question: With AAACAGGGGGCCACGGCAGAAGCGUUCACGUCGCAGCCCCUGUCAGAUUCUGGUGAAUCUGCGAAUUCUGCUGUAUAUCUC [U1A A15G] as the variant, how does the self-cleavage read?
Answer: 0.72

Question: With AAACAGGGGGCCACAGCAGAAGCGUUCUCGUCGCAGCCCCUGUCAGAUUCUGGUGAAUCUGCGAAUUCUGCUGUAUAUCUC [U1A A28U] as the variant, how does the self-cleavage read?
Answer: 0.88

Question: Which self-cleavage does the source give for AAACAGGGGGCCUCAGCAGAAGCGUUCACGUCGCAGCCCCUGUCAGAUUCUGGUGAAUCUGCGAAUUCUGCUGUAUAUCUC [U1A A13U] here?
Answer: 1.16

Question: Which self-cleavage does the source give for AAACAGGGGGCCGCAGCAGAAGCGUUCACGUCGCAGCCCCUGUCAGAUUCUGGUGAAUCUGCGAAUUCUGCUGUAUAUCUC [U1A A13G] here?
Answer: 0.8
